Experimental data: PMC2680030

Target: ULBP1 (UniProt Q9BZM6)
UniProt Q9BZM6, sequence (Q9BZM6 26-216): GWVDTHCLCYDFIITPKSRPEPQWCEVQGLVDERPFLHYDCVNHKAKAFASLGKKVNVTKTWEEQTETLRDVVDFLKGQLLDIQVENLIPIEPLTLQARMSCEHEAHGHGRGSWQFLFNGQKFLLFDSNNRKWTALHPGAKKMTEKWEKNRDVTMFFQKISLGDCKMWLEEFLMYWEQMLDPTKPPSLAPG

NKG2D, sequence (P26718 whole entry): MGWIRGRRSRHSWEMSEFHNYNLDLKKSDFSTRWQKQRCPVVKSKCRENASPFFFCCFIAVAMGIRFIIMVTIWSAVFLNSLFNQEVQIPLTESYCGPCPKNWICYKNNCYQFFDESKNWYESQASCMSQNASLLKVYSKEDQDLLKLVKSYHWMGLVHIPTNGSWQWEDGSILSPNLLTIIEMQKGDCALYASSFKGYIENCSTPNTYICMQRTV

NKG2D (from UniProt P26718 1-216) (receptor)
specific killing via NKG2D: killing of C1R/ULBP1 (37%) minus killing of C1R/Mock (20%) by primary bulk NK culture NK-A.K., effector-to-target ratio 5:1, PI co-staining of CFSE-labelled target cells: 17%
